Measured values reported in WO2005095457A2 (dated 2005).

What was measured:
[1] = target: T1, cynomolgus monkey OSM (cOSM) (cynomolgus monkey, UniProt P13725 26-221 (human entry), limits assumed); assay: gp130 inhibition ELISA, purified antibodies
T1 construct: also called cynomolgus OSM
T1 chain: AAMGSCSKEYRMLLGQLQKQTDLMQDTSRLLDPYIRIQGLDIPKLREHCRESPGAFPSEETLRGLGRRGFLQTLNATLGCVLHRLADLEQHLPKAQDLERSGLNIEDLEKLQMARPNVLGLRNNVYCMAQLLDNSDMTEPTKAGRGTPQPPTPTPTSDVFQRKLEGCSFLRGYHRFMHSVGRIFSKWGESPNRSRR

[2] = target: T2, glycosylated human OSM (hOSM) produced in CHO cells (human) (UniProt P13725); assay: competition ELISA: murine 10D3 titrated against 15E10-B3L2 (150 ng/ml, the competitor) on soluble glycosylated hOSM (50 ng/ml), capture by OM4-11.31, anti-human gamma chain detection
T2 sequence (chain, glycosylated (CHO cell glycosylated)): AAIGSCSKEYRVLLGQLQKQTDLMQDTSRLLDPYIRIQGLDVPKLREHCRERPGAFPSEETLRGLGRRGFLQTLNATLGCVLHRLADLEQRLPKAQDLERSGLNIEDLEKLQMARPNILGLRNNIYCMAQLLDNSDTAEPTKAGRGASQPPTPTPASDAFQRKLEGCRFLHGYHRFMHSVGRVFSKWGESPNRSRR

[3] = target: T3, human Oncostatin M (hOSM) (human, UniProt P13725 26-221); assay: gp130 ELISA, hOSM
T3 construct: also called human OSM
T3 sequence: T2 sequence (chain, glycosylated (CHO cell glycosylated))

[4] = target: T1, cynomolgus monkey OSM (cOSM); assay: gp130 inhibition ELISA and KB cell assay
[5] = target: T1, cynomolgus monkey OSM (cOSM); assay: gp130 inhibition ELISA, cynomolgus OSM

B1: humanised 15E10 antibody B3L2 (antibody, human IgG1, kappa, V domains shown)
VH: QVQLVESGGGVVQPGRSLRLSCAASGFSLTNYGVHWVRQAPGKGLEWVAVIWRGGSTDYNAAFMSRFTISKDNSKNTLYLQMNSLRAEDTAVYYCAKSPNSNFYWYFDVWGRGTLVTVSS
VL: EIVLTQSPATLSLSPGERATLSCSGSSSVSYMYWYQQKPGQAPRLLIEDTSNLASGIPARFSGSGSGTDYTLTISNLEPEDFAVYYCQQWSSYPPTFGQGTKLEIKR
notes: Human IgG1 wild type / kappa; purified from CHO; also called B3L2 wt; 15E10-B3L2
[1]
  binding result: binds

B2: 10D3 chimaeric antibody (antibody, human IgG1, V domains shown)
VH: EVQLQQSGPELVKPGASVKISCKASGYIFTDYNMDWVKQSHGKKLEWIGDINPNNGGTIDNQKFKDKATLTVDKSSSTAYMELRSLTSEDTAVYYCARGIYYYGSHYFDYWGQGTTLTVSS
VL: QIVLTQSPAIMSASPGEKVTMTCSATSSVSVMHWFQKKSGTSPKRWIYDTSKLASGVPTRFSGSGSGTSYSLTISSMEAEDTATYYCQQWSSNPLTFGSGTKLELK
notes: expressed in CHO; also called chimaeric 10D3; chimeric 10D3
[2]
  % inhibition of 15E10 at equimolarity (0.15μg/ml): 62.3%
[3]
  IC50: 0.032 µg/mL

B3: 15E10 chimaeric antibody (antibody, human IgG1, V domains shown)
VH: QVQLKQSGPGLVQPSQSLSITCTVSGFSLTNYGVHWVRQSPGKGLEWLGVIWRGGSTDYNAAFMSRLSITKDNSRSQVFFKMNSLQADDTAIYYCAKSPNSNFYWYFDVWGTGTTVTVSS
VL: QIVLTQSPTIMSASPGEKVTMTCSGSSSVSYMYWYQEKPGSSPRLLIEDTSNLASGVPARFSGSGSGTSYSLTISRMEAEDAATYYCQQWSSYPPTFGSGTKLEIK
notes: expressed in CHO; also called chimaeric 15E10; 15E10 chimaera
[4]
  binding result: binds

B4: 15E10 murine antibody (antibody, mouse IgG2a, V domains shown)
VH: B3 VH
VL: B3 VL
notes: also called clone 15E10; parent murine 15E10
[5]
  binding result: binds
